Like-named read-outs stand apart in the source and are kept apart here.

For test [1], the target named is Radiolabeled FabA (3H-labeled FabA) (rabbit). Description: SEC; radio-SEC of dosing formulations, 3H-FabA with equimolar albumin; 100 mM sodium phosphate pH 7.4, 10% ethanol.
Test [2] shares this target. Nature of the test: SEC; radio-SEC; 3H-FabA (0.57 or 5.7 µM) incubated in cynomolgus monkey vitreous humor at endogenous albumin (0.53 µM), 37 °C.
Test [3] deals with FabA (rabbit Fab with the anti-HSA nanobody ALB8 fused to the C-terminus of the heavy chain) (rabbit). Nature of the test: SPR; Fab captured by its His6 tag on an immobilised anti-His antibody (CM3 chip, about 15 RU); albumin 22.2-1800 nM injected; HBS-P+ (10 mM HEPES, 150 mM NaCl, pH 7.4, 0.05% P20), 25 °C; Langmuir 1:1 model.
Test [4] deals with Radiolabeled FabA (3H-labeled FabA) (rabbit). Description: SEC; radio-SEC; 3H-FabA (0.57 or 5.7 µM) incubated in cynomolgus monkey vitreous humor supplemented with 50, 100 and 250 µM CSA, 37 °C.
Test [5] has as its target FabA (rabbit Fab with the anti-HSA nanobody ALB8 fused to the C-terminus of the heavy chain) (rabbit). Nature of the test: SPR; Fab captured by its His6 tag on an immobilised anti-His antibody (CM3 chip, about 15 RU); albumin 22.2-1800 nM injected; HBS-P+ (10 mM HEPES, 150 mM NaCl, pH 7.4, 0.05% P20), 25 °C; Langmuir 1:1 model. This is another data set of the same source.

For test [6], the target named is Radiolabeled FabA (3H-labeled FabA) (rabbit). Described as above.
The target is the same in test [7].

Substance “Cynomolgus serum albumin (from UniProt A2V9Z4 25-608) (natural protein)” returned a stoichiometry N in test [1] of 1. The substance also showed a stoichiometry N in test [2] of 1. In test [3], this substance gave a Kd of 66 nM, a koff of 0.0065 s⁻¹ and an on-rate (kon) of 99000 M⁻¹ s⁻¹. Besides, the stoichiometry N in test [4] was determined as 2.
Regarding “Human serum albumin (from UniProt P02768 25-609) (natural protein)”, the Kd is 99 nM in test [5], 97 nM in test [6] and 55 nM in test [3]. For the same substance, in test [7], the vitreous humor exposure (AUCinf) of 3H-FabA in rabbits after intravitreal injection of 0.05 mg co-formulated with 1 or 15 nmol HSA (104 and 230 h∙nmol/mL; FabB control with 1 nmol HSA 72.8) was found to be 230 nmol·h/mL. The substance also returned a vitreous humor half-life (t1/2) of 3H-FabA in rabbits after intravitreal injection of 0.05 mg co-formulated with 1 or 15 nmol HSA (58.0 and 149 h; FabB control with 1 nmol HSA 52.1 h) in test [7] of 149 h.

For the origin of these results see paper PMC7559355.
